From US20200147241A1 (AMICUS THERAPEUTICS, published 2020)
Where a chain is given by its changes, count along the chain named. Numbers in names are those of the source.

Molecular target: the molecule itself
Assay: reduced and non-reduced SDS-PAGE and Western blot of 293HEK cell lysate and culture media (homodimer formation)
Source text: The formation of disulfide bonded dimers of modified α-GAL was examined in cell lysate and culture media (FIG. 2A). Clones of each α-GAL construct were transiently expressed in 293HEK cell. Cell lysates and culture media were run on 4-12% gradient SDS-PAGE and transferred to nitrocellulose. α-GAL was detected by Western Blotting with rabbit monoclonal anti- α-GAL 1:2000 (abcam ab168341).
Reduced and non-reduced samples were subjected to electrophoresis and Western blotting.

B1: Human α-GAL M51C-G360C (enzyme)
chain: LDNGLARTPTMGWLHWERFCCNLDCQEEPDSCISEKLFMEMAELMVSEGWKDAGYEYLCIDDCWMAPQRDSEGRLQADPQRFPHGIRQLANYVHSKGLKLGIYADVGNKTCAGFPGSFGYYDIDAQTFADWGVDLLKFDGCYCDSLENLADGYKHMSLALNRTGRSIVYSCEWPLYMWPFQKPNYTEIRQYCNHWRNFADIDDSWKSIKSILDWTSFNQERIVDVAGPGGWNDPDMLVIGNFGLSWNQQVTQMALWAIMAAPLFMSNDLRHISPQAKALLQDKDVIAINQDPLGKQGYQLRQGDNFEVWERPLSGLAWAVAMINRQEICGPRSYTIAVASLGKGVACNPACFITQLLPVKRKLGFYEWTSRLRSHINPTGTVLLQLENTMQMSLKDLL
notes: It is the full precursor entry; Transiently expressed in 293HEK cells, tested in cell lysate and culture media; also called M51C-G360C α-GAL; modified α-galactosidase A
- binding result: binds

B2: Human α-GAL D233C-I359C (enzyme)
chain: B1 chain with C20M, D202C, I328C, C329G
notes: It is the full precursor entry; Transiently expressed in 293HEK cells, tested in cell lysate and culture media; also called D233C-I359C α-GAL; modified α-galactosidase A
- binding result: binds
